This series can be described thus: yeast display, Sf9 membrane polyspecificity reagent, FACS + sequencing; frameworks hold sequencing errors. In a few lines:
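Nanobodies from a synthetic yeast display library (Saccharomyces cerevisiae BJ5465), induced 36–48 hours with galactose, were stained 1 hour at 4 °C with 10% biotinylated, detergent-solubilized Sf9 membrane reagent, enriched on streptavidin microbeads, then FACS-sorted. Anti-HA (expression) and streptavidin (reagent binding) fluorescence set low and high (top ~1%) gates. Polyreactivity labels come from the gate of origin. Genes were colony-PCR amplified, MiSeq 2 × 250 sequenced and filtered by CDR length.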
In the case of “QVQLVESGGGLVQAGGSLRLSCAASGRNFGINAMVWFRPAPGKERELVAAISRSGGRTYYADSVKGRFTISRDNAKNTVYLQMISLKPEDTAVYYCAKVPTYWYYRYYYWGQGTEVTVSS”, the “polyreactivity (PSR sort gate)” value is given as “high polyreactivity”. Then “QVQLVESGGGLVQAGGSLRLSCAASGSTISGNAMGWYRQAPGKERELVAAISQSGGSTYYADSVKGRFTISRDNAKNTVYLQMNSLKPEDTAVYYCNRLYYFLARRMDSWGQGTQVTVSS”, with “high polyreactivity”; and “QVQLVESGGGLVQAGGSLRLSCAASGSIFGQYAMGWYRQAPGKEREYVAAISWRGTSTYYADSVKGRFTISRDNAKNTVYLQMNSLKPEDTAVYYCAGRYVKPSRYKYNYWGQGTQVTVSS”, with “high polyreactivity”. As to “QVQLVESGGGLVQAGGSLRLSCDASGSTFPFYAMARYRQAPRKERELVAAIRNTGNTYYADSVKGSFTISRDNAKNTAYLQMNSLNPEDPAVYYCAKALRSASDYWGQGTQVTVSS”, the “polyreactivity (PSR sort gate)” value is reported as “low polyreactivity”. Regarding “QVQLVESGGGLVQAGGSLRLSCAASGRTFRYYTMGWYRQAPGKERELVAAITRNGGRTYYADSVKGRFTISRDNAKNTVDLQMNSLKPEDPAVYYCAPGTYDGGYHYDYWGQGTQVTVSS”, the “polyreactivity (PSR sort gate)” value is “high polyreactivity”. With “QVHLEESWGGLVQAGGSLSISCAASGSIFRPNAMGWYRPAPGKERELVAAINKIGGRTYYADSVKGRFTISRDNAKNTVYLQMNSLKPEDTAVYYCNAGGGYHYWGQGTQVTVSS”, the “polyreactivity (PSR sort gate)” value is on record as “high polyreactivity”. In the case of “QVQLVESGGGLVQAGGSLRLSCAASGRTFYPYAMGWYRQAPGKARELVASINWSGASTYYADSVKGRFTISRDNAKNTVYLQMNSLKPEDTAVYYCAARYTPRRYYYWGQGTHVTVSS”, the “polyreactivity (PSR sort gate)” value is recorded as “high polyreactivity”. “QVQLVESGGGLVQAGGSLRLSCAASGRIFRVYAMGWYRQAPGKERELVAAINRSGGTTYYADSVKGRFTISRDNAKHTVYLQMNSLKPEDTAVYYCNAPVRRDVAYGYWGQGTQVTVSS”: the “polyreactivity (PSR sort gate)” value was “high polyreactivity”.

With “QVQLVESGGGLVQAGGSLRLSCAASGSIFGEIAMGWYRQAPGKERELVAAISSGVSTNYADSVKGRFTISRDNAKNTVYLQMNSLKPEDTAVYYCAVDSLPNSPYDYWGHGTQVTVSS”, the “polyreactivity (PSR sort gate)” value is “low polyreactivity”. For the sequence “QVQLVETGGGIVQAGGSLSLSCAASGRIFSPYAMGWYRQAPGKERELVAAISYDDGITYYADSVKGRFTISRDNAKNTVYLQMISLKPEDTAVYYCAADSVTRPAGDYWGQGTQVTVSS”, the “polyreactivity (PSR sort gate)” value is on record as “low polyreactivity”. Take “QVQLVESGGGLVQAGGSLRLSCAASGRIFRYNAMGWYRQAPGKGRELVAAITWDGGSTYYADSVKGRFTISRDNAKYTVYLQMNSLKPEYTAVYYCKAVTRSYYSDYYWGQGTQVTVSS”: the “polyreactivity (PSR sort gate)” value was “high polyreactivity”. Then “QVQLVESGAGLVQAGGSLRLSCAASGFTFYRYAMGWYRQAPGKEREFLAAITASGGSTNYADSVKGRFTISRDNAKNTVYLQMNSLKPEDTAVYYCAARQSRDFRYRGFYYWGQGTQVTVSS”, with “high polyreactivity”; and “QVQLVQSGGGLVKAGGSLRLRCAASGFTFVKYAMGCYRQAPGKERELIAVISRRGGSTYYADSVKGRFTISRDNAKNTVYLQMNSLKPEDSAVYYCAGVYYLYSAWRYDYWGLGTQVTVSS”, with “high polyreactivity”. Turning to “QVQLVESGGGLFQAGGSLRLSCAASGFTFAFNAMGWYRQAPGKERELVAGITSGGRTNYADSVKGRFTISRDNGKNTVYLQMNSLKPEDTAVYYCAADRPYYKGYVPPYYKYRYDYWGQGTQVTVSS”, the “polyreactivity (PSR sort gate)” value is “high polyreactivity”. For the sequence “QVQLVESGGGLVQAGGSLRLSCAASGSTFWIYAMGWYRQAPGKERELVAAITLRSGSTYYADSVKGRFTISRDNAKNTVYLQMYSLKPEDTAVYYCATDSWGVDRPNYNYWGQGTQVTVSS”, the “polyreactivity (PSR sort gate)” value was “low polyreactivity”. In the case of “QVQLVESGGGLVQAGGSLRLSCAASGRIFGLYAMGWYRQAPGKERELVARITRGGSTYADSVKGRFTISRDNAKNSVYLQMNSLKPEDTAVYYCNAEWIVRNSGDYEYWGQGTQVTVSS”, the “polyreactivity (PSR sort gate)” value was “high polyreactivity”.
